Paper PMC5173032, “A plasma proteolysis pathway comprising blood coagulation proteases” (Oncotarget, 2016)

T1: 153T-172Rdel-FXII (human, UniProt P00748 20-615, 153T-172Rdel)
T1 construct: signal peptide in the construct; source: CHO-K1, transfected (pCMV6-XL5), purified from cell lysate (Ni-NTA agarose); not shown: His6, C-terminal, kept
T1 sequence (looked up): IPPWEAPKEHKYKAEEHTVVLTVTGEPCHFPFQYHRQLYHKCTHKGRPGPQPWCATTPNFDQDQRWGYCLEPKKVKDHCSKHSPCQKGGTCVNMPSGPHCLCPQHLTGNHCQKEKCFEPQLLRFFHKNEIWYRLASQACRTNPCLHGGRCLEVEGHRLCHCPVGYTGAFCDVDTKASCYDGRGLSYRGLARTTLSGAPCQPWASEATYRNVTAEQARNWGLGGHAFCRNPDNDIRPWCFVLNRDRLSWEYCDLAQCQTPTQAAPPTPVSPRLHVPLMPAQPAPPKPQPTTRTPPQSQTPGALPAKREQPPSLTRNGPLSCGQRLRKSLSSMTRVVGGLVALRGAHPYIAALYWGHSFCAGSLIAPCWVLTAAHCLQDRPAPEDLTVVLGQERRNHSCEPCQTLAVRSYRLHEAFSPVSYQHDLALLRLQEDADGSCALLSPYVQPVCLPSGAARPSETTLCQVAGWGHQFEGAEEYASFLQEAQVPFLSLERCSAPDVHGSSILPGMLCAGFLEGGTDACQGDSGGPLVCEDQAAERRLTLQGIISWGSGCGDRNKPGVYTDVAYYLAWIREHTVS

T2: 20I-50Pdel-FXII (human, UniProt P00748 20-615, 20I-50Pdel)
T2 construct: signal peptide in the construct; source: CHO-K1, transfected (pCMV6-XL5), purified from cell lysate (Ni-NTA agarose); not shown: His6, C-terminal, kept
T2 sequence (looked up): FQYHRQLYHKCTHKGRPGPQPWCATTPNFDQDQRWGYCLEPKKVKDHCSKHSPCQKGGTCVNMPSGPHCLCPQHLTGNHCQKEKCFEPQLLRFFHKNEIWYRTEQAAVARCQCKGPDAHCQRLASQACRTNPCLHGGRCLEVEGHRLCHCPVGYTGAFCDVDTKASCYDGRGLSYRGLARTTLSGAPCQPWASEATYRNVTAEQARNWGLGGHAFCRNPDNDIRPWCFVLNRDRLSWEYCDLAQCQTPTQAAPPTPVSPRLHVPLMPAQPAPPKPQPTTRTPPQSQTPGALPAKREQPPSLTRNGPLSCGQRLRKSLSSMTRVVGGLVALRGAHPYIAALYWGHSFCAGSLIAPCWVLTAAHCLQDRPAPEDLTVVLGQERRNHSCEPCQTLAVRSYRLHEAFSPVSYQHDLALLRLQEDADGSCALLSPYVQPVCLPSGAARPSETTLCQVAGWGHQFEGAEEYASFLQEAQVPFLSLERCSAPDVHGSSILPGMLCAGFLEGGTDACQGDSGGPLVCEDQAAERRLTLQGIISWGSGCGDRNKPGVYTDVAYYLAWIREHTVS

B1: recombinant human FXII with 6XHis C-terminal tag (natural protein, UniProt P00748 20-615, looked up)
chain: IPPWEAPKEHKYKAEEHTVVLTVTGEPCHFPFQYHRQLYHKCTHKGRPGPQPWCATTPNFDQDQRWGYCLEPKKVKDHCSKHSPCQKGGTCVNMPSGPHCLCPQHLTGNHCQKEKCFEPQLLRFFHKNEIWYRTEQAAVARCQCKGPDAHCQRLASQACRTNPCLHGGRCLEVEGHRLCHCPVGYTGAFCDVDTKASCYDGRGLSYRGLARTTLSGAPCQPWASEATYRNVTAEQARNWGLGGHAFCRNPDNDIRPWCFVLNRDRLSWEYCDLAQCQTPTQAAPPTPVSPRLHVPLMPAQPAPPKPQPTTRTPPQSQTPGALPAKREQPPSLTRNGPLSCGQRLRKSLSSMTRVVGGLVALRGAHPYIAALYWGHSFCAGSLIAPCWVLTAAHCLQDRPAPEDLTVVLGQERRNHSCEPCQTLAVRSYRLHEAFSPVSYQHDLALLRLQEDADGSCALLSPYVQPVCLPSGAARPSETTLCQVAGWGHQFEGAEEYASFLQEAQVPFLSLERCSAPDVHGSSILPGMLCAGFLEGGTDACQGDSGGPLVCEDQAAERRLTLQGIISWGSGCGDRNKPGVYTDVAYYLAWIREHTVS
notes: signal peptide in the construct; also called factor XII; source: CHO-K1, transfected (pCMV6-XL5), purified from cell lysate (Ni-NTA agarose); not shown: His6, C-terminal, kept

What was measured:
Conditions in all cases: both partners purified
human amyloid β1-42 = biological target: T3, human amyloid β1-42 (human, UniProt P05067 672-713); assay: co-sedimentation; hAβ1-42 (200 nM) incubated with FXII or a mutant (20 nM) in PBS, 100 μl, 2 h at RT; Aβ1-42 aggregated; low-speed centrifugation; precipitates re-dissolved in 2% SDS and analysed with the supernatants by IB
T3 construct: amyloid β1-42, the peptide cut by secretases from the human Aβ precursor protein; numbers count on: the peptide; also called hAβ1-42; Aβ1-42; source: bought: Sigma-Aldrich (A9810)

153T-172Rdel-FXII = biological target: T1, 153T-172Rdel-FXII; assay: co-IP; purified proteins: hPEPD, an hPEPD mutant or mSRC at 40 nM incubated with a coagulation factor, FXII or an FXII mutant at 0.5 μM in PBS, 100 μl, 2 h at 37°C; then a specific primary antibody at 4°C overnight, IP by protein G-agarose, IB
[1] = biological target: B1; assay: as above
20I-50Pdel-FXII = biological target: T2, 20I-50Pdel-FXII; assay: as above

Row | binding result (human amyloid β1-42) | binding result (153T-172Rdel-FXII) | binding result [1] | binding result (20I-50Pdel-FXII) | Binder
1 | binds |  |  |  | B1
2 |  | binds | binds | binds | recombinant human prolidase (peptidase D, PEPD) (enzyme, UniProt P12955 1-493, looked up, human prolidase (peptidase D); also called hPEPD; source: recombinant, generated, purified and characterized as recently reported [7, 11]; not shown: His6, C-terminal, kept) MAAATGPSFWLGNETLKVPLALFALNRQRLCERLRKNPAVQAGSIVVLQGGEETQRYCTDTGVLFRQESFFHWAFGVTEPGCYGVIDVDTGKSTLFVPRLPASHATWMGKIHSKEHFKEKYAVDDVQYVDEIASVLTSQKPSVLLTLRGVNTDSGSVCREASFDGISKFEVNNTILHPEIVECRVFKTDMELEVLRYTNKISSEAHREVMKAVKVGMKEYELESLFEHYCYSRGGMRHSSYTCICGSGENSAVLHYGHAGAPNDRTIQNGDMCLFDMGGEYYCFASDITCSFPANGKFTADQKAVYEAVLRSSRAVMGAMKPGVWWPDMHRLADRIHLEELAHMGILSGSVDAMVQAHLGAVFMPHGLGHFLGIDVHDVGGYPEGVERIDEPGLRSLRTARHLQPGMVLTVEPGIYFIDHLLDEALADPARASFLNREVLQRFRGFGGVRIEEDVVVTDSGIELLTCVPRTVEEIEACMAGCDKAFTPFSGPK
